The record followed here is the RNAGym collection of RNA variant scans (doi:10.7554/elife.80360).

First the molecules themselves.
B1: Hammerhead Ribozyme (parent)
chain: ACCGGAUGUGCUUUCCGGUCUGAUGAGUCCGUGAGGACGAAACAG

The data set covers variants of B1. The data set is described as follows: self-cleavage, relative activity (ratio to wild type); higher = more cleavage; co-transcriptional.
For the variant C29G A40U, the self-cleavage amounted to 0.325. The same measure for G22C G45U: 0.384; for G17C C29U: 0.542.

For the variant U12C A41G, the self-cleavage was found to be 0.358. The same measure for U21A: 0.687.

Turning to U12A C16A, the self-cleavage was 1.03. The value for G25A A40U was 0.356; that for G18U U32A was 0.646. In the case of G10U U21C, the self-cleavage is 0.896. For G39C C43G, the self-cleavage was found to be 0.384. The same measure for C2A G45A: 0.393; for G5A C20U: 1.01; for C38G G39C: 0.326. G31A A40C: the self-cleavage turned out to be 0.642. The value for A6G A37U was 0.44; that for G5A G36A was 0.667. The same measure for U28G A44G: 0.673; for C2G G35C: 0.339; for G5U A6G: 0.644. Take C16G A23G: the self-cleavage was determined as 0.406. The same measure for C11U C29U: 0.897. The value for C15A C20U was 0.438; that for C11G G45A was 0.626. As for C11G G45U, the self-cleavage is 0.928. The value for C38G A41U was 0.316; that for G4C U7C was 0.353; that for G5C U14C was 0.429.

Take G31C A44U: the self-cleavage came to 0.655.

For C2G U14A, the self-cleavage came out at 0.314.

With U14A C15A, the self-cleavage stood at 1.09.

For C3A G22C, the self-cleavage was found to be 0.285.

On to C30G G45A, for which the self-cleavage came to 0.403. For the variant C2U G25C, the self-cleavage is 0.345. For the variant G5C G17C, the self-cleavage amounted to 0.268.

Turning to U7G A26C, the self-cleavage amounted to 0.265.

As for C38G A40U, the self-cleavage worked out at 0.301. The same measure for C2G U21A: 0.314; for U14A G45A: 0.765; for C11G U19A: 0.296.

On to A1G G4U, for which the self-cleavage is 0.693. The value for G10A G33U was 1.01. The same measure for U24G G39A: 0.327. The value for G5A U13A was 1.68.

As to C2G A37C, the self-cleavage was determined as 0.311. C15A A41C: the self-cleavage came out at 0.338. The value for U32A A37G was 1.16; that for U13C U28A was 0.739. Take U14A: the self-cleavage was 0.954. In the case of G17A G27C, the self-cleavage turned out to be 0.399. A23C A44G: the self-cleavage was determined as 0.896. For the variant A1U U9G, the self-cleavage was determined as 0.348. The same measure for G4U G17A: 0.316; for G4C C16G: 1.35. The same measure for G5A G8A: 1.24. Take A1G A42U: the self-cleavage came out at 0.425. The same measure for U13A G22U: 0.381. In the case of G25U G45A, the self-cleavage was determined as 0.306. For U14C G17A, the self-cleavage is 0.494. The same measure for G5U U13A: 1.37; for A23U C30U: 0.402. The value for G17U U19A was 0.361; that for U28C A34C was 0.684; that for A37G was 0.886. The same measure for U21C C29G: 0.507; for U12G C43G: 0.181; for G17A C20U: 0.442. Take G10C G22C: the self-cleavage is 0.28. The same measure for G25A A41G: 0.337; for U13G U32A: 1.01. As to U32C G33U, the self-cleavage turned out to be 1.37. The value for U9C C43U was 0.38. The same measure for C15G G36U: 0.374; for U7C G25C: 0.319; for A6G U12A: 0.819. The value for C15A A37U was 0.434.

As to C15A A37C, the self-cleavage was 0.403.

As to G33A G35A, the self-cleavage stood at 0.825. The value for G5U U19A was 0.29; that for G22C U24G was 0.281; that for G8C A37U was 0.842. As for G4C G25A, the self-cleavage was found to be 0.307.

G5A A34C: the self-cleavage is 1.1. With G25U A44U, the self-cleavage was found to be 0.373. The same measure for U21C A41G: 0.297; for C16U G17C: 0.551; for G10A U14A: 1.21. The value for U32A G35U was 0.985.

For G17U G27U, the self-cleavage was found to be 0.513. The value for C15A G35U was 0.583. The same measure for A37C A41U: 0.296; for U7C C20U: 0.492; for G17A A42G: 0.327.

Consider C20U C38G, for which the self-cleavage was 0.298. As for G17A A44C, the self-cleavage is 0.513. The same measure for C11A U28G: 0.964; for C15G A26U: 0.516; for C16A C20A: 0.474. The value for A37U A42G was 0.271; that for A37U A42C was 0.304. As for A1C U7C, the self-cleavage amounted to 0.38. The value for C15G U24C was 0.818; that for U14G G22A was 0.314; that for G17A G31C was 0.652. The value for G27U C30G was 0.297; that for G27U C30A was 0.317; that for G8U A26U was 0.935. The value for G8U A26G was 0.351; that for G4U A34G was 0.452. U24A G25U: the self-cleavage came out at 0.282.

Turning to C29U G39U, the self-cleavage came out at 0.369.

In the case of U24G A34U, the self-cleavage was determined as 0.679. Consider A1G G35A, for which the self-cleavage is 1.23. The value for A1U A23C was 0.385; that for U19G G35A was 0.282; that for G4A G36A was 0.367. For U19C A44C, the self-cleavage turned out to be 0.325. Regarding C20A C38A, the self-cleavage came to 0.292.

U28C G35A: the self-cleavage turned out to be 0.638.

U32G G33A: the self-cleavage amounted to 0.843. With U32G G36A, the self-cleavage turned out to be 0.556. The same measure for U28C A41U: 0.319.

Take C20A U28C: the self-cleavage came out at 0.487. Take U13G A44C: the self-cleavage amounted to 0.567. Take C16G U28A: the self-cleavage came to 0.407.

As to C20U U28G, the self-cleavage is 0.596. The same measure for G25U U28C: 0.274. On to A6G G22A, for which the self-cleavage worked out at 0.239.

Consider C38A G45U, for which the self-cleavage stood at 0.461. The same measure for G8A A23C: 0.396.

With G31U A34U, the self-cleavage came out at 0.844. The value for C11U A42G was 0.304. For G4U C15U, the self-cleavage worked out at 0.523. Take U21G C30U: the self-cleavage was 0.837. The value for G8A A40C was 0.683. Turning to G8A A40G, the self-cleavage was found to be 0.235. The same measure for U7A U9C: 1.04; for C3U G10A: 1.47; for C43A: 0.375. Turning to U32A A41U, the self-cleavage turned out to be 0.405.

As for U21A A40C, the self-cleavage is 0.315. The value for U21A G33U was 0.55; that for A6C U7A was 0.311.

On to G5C U28C, for which the self-cleavage stood at 0.33. As for G33C A40U, the self-cleavage is 0.409. As to U13G A23G, the self-cleavage is 0.368. With A6U C11U, the self-cleavage worked out at 0.607.

For G22C G33A, the self-cleavage came to 0.266. The same measure for C16G A37U: 0.606; for G10U G27U: 0.507. Turning to A1U U12C, the self-cleavage is 0.546. The value for C11U U32G was 0.799; that for G27U A34U was 0.382. The value for G25U G27A was 0.34. Consider A26C G36A, for which the self-cleavage was determined as 0.395. As to C15U C20A, the self-cleavage was 0.511.

As for C11A U12A, the self-cleavage is 0.977. As to U12G G25U, the self-cleavage was determined as 0.315. The value for C11U U24G was 1.02; that for C3U A26G was 0.366; that for C2A A40U was 0.35. For the variant U13C U21G, the self-cleavage came out at 0.864. The value for G8C C43G was 0.403; that for G25U C30A was 0.293. Turning to G22C C38U, the self-cleavage worked out at 0.315.

For C20G U24C, the self-cleavage was 0.302. The value for C16A G18A was 0.351; that for U32C A34C was 0.95.
